Assay results taken from IntAct's records for PubMed 16316992.

Experiments:
magi3_human MAGI3 [1] = target: magi3_human MAGI3 (UniProt Q5TCQ9)
magi3_human MAGI3 [2] = target: magi3_human MAGI3 (UniProt Q5TCQ9); remark: listed apart in the source

Sequence of magi3_human MAGI3 (Q5TCQ9 whole entry): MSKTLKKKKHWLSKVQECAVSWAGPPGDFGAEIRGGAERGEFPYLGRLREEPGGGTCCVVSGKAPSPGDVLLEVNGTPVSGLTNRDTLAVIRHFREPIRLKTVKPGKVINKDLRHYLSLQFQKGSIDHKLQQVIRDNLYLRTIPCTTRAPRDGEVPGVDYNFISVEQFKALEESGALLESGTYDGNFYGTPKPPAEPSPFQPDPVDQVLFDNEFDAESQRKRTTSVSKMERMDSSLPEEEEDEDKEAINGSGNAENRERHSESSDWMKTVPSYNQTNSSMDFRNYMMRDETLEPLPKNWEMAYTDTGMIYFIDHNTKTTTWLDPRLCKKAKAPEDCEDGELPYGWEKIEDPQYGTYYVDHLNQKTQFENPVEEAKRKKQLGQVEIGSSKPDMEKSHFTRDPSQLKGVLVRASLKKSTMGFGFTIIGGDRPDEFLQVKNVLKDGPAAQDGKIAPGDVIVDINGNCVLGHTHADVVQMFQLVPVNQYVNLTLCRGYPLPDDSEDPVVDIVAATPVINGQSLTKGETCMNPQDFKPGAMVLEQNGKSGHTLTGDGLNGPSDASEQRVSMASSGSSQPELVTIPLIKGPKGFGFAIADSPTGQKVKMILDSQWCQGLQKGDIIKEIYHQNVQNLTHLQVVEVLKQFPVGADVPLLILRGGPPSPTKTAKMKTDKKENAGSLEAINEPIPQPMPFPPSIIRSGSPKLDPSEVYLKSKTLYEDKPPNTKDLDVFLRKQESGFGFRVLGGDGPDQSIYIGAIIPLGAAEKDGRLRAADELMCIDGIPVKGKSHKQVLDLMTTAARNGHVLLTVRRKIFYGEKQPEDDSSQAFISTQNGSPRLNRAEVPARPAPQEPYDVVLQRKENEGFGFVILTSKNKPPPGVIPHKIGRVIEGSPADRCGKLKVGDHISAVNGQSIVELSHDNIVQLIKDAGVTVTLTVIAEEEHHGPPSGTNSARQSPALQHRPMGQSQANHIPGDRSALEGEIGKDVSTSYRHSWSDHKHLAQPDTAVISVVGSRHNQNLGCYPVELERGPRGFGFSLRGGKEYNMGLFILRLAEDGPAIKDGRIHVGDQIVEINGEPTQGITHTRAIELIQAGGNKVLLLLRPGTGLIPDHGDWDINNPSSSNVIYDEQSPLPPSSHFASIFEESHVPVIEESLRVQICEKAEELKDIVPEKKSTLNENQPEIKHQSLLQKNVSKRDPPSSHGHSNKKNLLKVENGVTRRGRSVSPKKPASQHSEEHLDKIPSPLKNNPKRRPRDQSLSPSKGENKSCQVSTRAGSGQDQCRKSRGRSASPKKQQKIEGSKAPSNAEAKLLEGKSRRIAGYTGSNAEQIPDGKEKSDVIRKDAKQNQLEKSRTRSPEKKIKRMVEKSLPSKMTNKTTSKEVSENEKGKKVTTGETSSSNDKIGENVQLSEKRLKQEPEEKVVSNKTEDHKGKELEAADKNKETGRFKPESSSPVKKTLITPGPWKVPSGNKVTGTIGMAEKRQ
Sequence of Beta-1 adrenergic receptor (Homo sapiens), P08588 V477L (P08588 whole entry V477L): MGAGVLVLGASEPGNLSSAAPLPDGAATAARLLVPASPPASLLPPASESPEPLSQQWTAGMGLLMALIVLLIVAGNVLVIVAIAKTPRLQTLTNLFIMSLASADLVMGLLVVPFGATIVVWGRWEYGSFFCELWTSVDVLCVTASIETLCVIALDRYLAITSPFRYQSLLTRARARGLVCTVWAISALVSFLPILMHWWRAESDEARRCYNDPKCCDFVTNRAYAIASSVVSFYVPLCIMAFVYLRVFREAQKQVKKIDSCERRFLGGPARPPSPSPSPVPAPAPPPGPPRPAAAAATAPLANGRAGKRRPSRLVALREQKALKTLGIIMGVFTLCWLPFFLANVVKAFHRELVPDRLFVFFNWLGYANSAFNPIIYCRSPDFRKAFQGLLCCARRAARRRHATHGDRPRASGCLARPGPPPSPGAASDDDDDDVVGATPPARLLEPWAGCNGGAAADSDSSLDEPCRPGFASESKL
Sequence of Beta-1 adrenergic receptor (Homo sapiens), P08588 E474T (P08588 whole entry E474T): as the sequence (P08588 whole entry V477L) above, with E474T, L477V counted along it
Sequence of Beta-1 adrenergic receptor (Homo sapiens), P08588 K476R (P08588 whole entry K476R): as the sequence (P08588 whole entry V477L) above, with K476R, L477V counted along it
Sequence of Beta-1 adrenergic receptor (Homo sapiens), P08588 V477M (P08588 whole entry V477M): as the sequence (P08588 whole entry V477L) above, with L477M counted along it
Sequence of Beta-1 adrenergic receptor (Homo sapiens), P08588 V477A (P08588 whole entry V477A): as the sequence (P08588 whole entry V477L) above, with L477A counted along it
Sequence of Beta-1 adrenergic receptor (Homo sapiens), P08588 E474A (P08588 whole entry E474A): as the sequence (P08588 whole entry V477L) above, with E474A, L477V counted along it
Sequence of Beta-1 adrenergic receptor (Homo sapiens), P08588 S475A (P08588 whole entry S475A): as the sequence (P08588 whole entry V477L) above, with S475A, L477V counted along it
Sequence of Beta-1 adrenergic receptor (Homo sapiens), P08588 V477I (P08588 whole entry V477I): as the sequence (P08588 whole entry V477L) above, with L477I counted along it

Substance | effect of a mutation on the interaction (magi3_human MAGI3 [1]) | effect of a mutation on the interaction (magi3_human MAGI3 [2])
Beta-1 adrenergic receptor (Homo sapiens), P08588 E474T | decreasing interaction | 
Beta-1 adrenergic receptor (Homo sapiens), P08588 V477I |  | decreasing interaction
Beta-1 adrenergic receptor (Homo sapiens), P08588 K476R | decreasing interaction | 
Beta-1 adrenergic receptor (Homo sapiens), P08588 V477M |  | decreasing interaction
Beta-1 adrenergic receptor (Homo sapiens), P08588 V477L |  | decreasing interaction
Beta-1 adrenergic receptor (Homo sapiens), P08588 S475A | decreasing interaction | 
Beta-1 adrenergic receptor (Homo sapiens), P08588 V477A | decreasing interaction | 
Beta-1 adrenergic receptor (Homo sapiens), P08588 E474A | decreasing interaction | 
